Positions count from the first letter of the chain named.
What was measured:
[1] = biological target: T1, human LTBP1-proTGFβ1 complex (human, UniProt Q14766 347-1721; P01137 30-390); assay: SPR Biacore 8K, Fab over captured antigen; mean of 5
T1 construct: Large latent complex: one presenting molecule disulfide-linked to a proTGFβ1 dimer; also called Hu LTBP1-proTGFβ1; huLTBP1 proTGFβ1
Protocol: (§1) A Biacore 8K system was employed to determine the monovalent binding affinity and the kinetic parameters for antigen binding of test antibodies. Association and dissociation kinetics of Fab fragments SR-AB42-HuFab, SR-AB63-HuFab and SR-AB43-HuFab to antigen complexes were measured, and resulting ka, kd and KD are provided below. Briefly, the binding kinetics were evaluated by surface plasmon resonance using Biacore 8K (GE Healthcare). Biotinylated capture antigens were immobilized to the chip (10 nM, ˜200 RU loading). A Biotin CAPture sensor chip was used to capture the biotinylated antigens. […] 0 nM was used as a reference. […] 0 nM was used as a reference. Multi-cycle kinetics was employed where each analyte concentration was injected in a separate cycle and the sensor chip surface was regenerated after each cycle. A11 the assays were carried out in freshly prepared 1× HBS-EP+ buffer (10 mM HEPES, 150 mM NaCl, 3 mM EDTA, 0.05% Tween20, pH 7.4). Data were fit globally to a 1:1 binding model to obtain the kinetic parameters. The sensorgram for 0 nM analyte concentration was used as reference.

[2] = biological target: T1, human LTBP1-proTGFβ1 complex; assay: SPR Biacore 8K, Fab over captured antigen, Rmax fixed
Protocol: (§2) These experiments were performed using the Biacore 8K using the method “multi-cycle kinetics/affinity using Biotin CAPture kit.”
(§3) Data collection rate was set to 10 Hz and the Biotin CAPture step was performed for 300 seconds with a flow rate of 2 μL/minute. The Biotin CAPture reagent was used after a 1:5 dilution in 1× Biacore running buffer. Biotinylated ligands (the various complexes of TGFβ1) were utilized at a concentration of 10 nM and were immobilized to the sensor chip for 180 seconds with a flow rate of 10 μL/minute. […] Analyte contact time was 120 seconds and the dissociation time was 900 seconds. The regeneration cycle utilized was 120 seconds with a flow rate of 10 μL/minute.
(§4) The evaluation method used was “multi-cycle affinity using capture” and a 1:1 binding model was used. […] Global fits were utilized for every KD determination.

[3] = biological target: T2, mouse LRRC33-proTGFβ1 complex (mouse, UniProt Q8BMT4 20-651, limits assumed); assay: as above
T2 construct: also called MuLRRC33-ProTGFb1; Mu LRRC33-ProTGFβ1
T2 sequence (Q8BMT4 20-651 limits assumed, chain 1 of 2): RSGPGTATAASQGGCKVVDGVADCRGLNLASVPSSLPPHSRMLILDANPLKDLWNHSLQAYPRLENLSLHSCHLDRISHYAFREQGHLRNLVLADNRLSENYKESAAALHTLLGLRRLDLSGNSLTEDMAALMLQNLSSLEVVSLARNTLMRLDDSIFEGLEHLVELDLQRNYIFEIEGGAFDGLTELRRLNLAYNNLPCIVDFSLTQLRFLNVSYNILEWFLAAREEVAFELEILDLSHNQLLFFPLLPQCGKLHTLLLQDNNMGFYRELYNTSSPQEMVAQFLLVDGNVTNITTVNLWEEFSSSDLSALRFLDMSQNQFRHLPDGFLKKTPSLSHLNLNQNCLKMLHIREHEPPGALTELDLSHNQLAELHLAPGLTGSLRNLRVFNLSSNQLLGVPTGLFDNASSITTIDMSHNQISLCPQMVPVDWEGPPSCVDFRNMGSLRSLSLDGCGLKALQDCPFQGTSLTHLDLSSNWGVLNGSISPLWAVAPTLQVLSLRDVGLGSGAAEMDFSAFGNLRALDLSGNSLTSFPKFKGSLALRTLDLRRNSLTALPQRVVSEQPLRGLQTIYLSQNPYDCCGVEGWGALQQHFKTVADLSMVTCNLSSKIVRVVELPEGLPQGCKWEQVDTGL
T2 sequence (chain, as listed by the source limits assumed, chain 2 of 2): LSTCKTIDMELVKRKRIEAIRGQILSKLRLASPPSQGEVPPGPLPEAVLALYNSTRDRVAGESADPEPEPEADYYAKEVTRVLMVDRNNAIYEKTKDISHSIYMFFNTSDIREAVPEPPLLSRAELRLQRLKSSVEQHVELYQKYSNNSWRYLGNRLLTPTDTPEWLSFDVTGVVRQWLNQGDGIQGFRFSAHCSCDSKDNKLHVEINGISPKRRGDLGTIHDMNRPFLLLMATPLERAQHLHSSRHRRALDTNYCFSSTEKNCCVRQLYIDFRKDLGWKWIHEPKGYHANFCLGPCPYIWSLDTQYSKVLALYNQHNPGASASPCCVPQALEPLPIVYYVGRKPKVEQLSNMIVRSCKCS
Protocol: as §2, §3, §4

[4] = biological target: T3, mouse LTBP3-proTGFβ1 complex (mouse, UniProt Q61810 41-1245; P04202 30-390, limits assumed); assay: as above
T3 construct: Exemplary entries; also called Mo LTBP3-proTGFβ1; Murine LTBP3 proTGFb1
T3 sequence (Q61810 other isoform, or with tags, fused parts or gaps limits assumed, chain 1 of 2): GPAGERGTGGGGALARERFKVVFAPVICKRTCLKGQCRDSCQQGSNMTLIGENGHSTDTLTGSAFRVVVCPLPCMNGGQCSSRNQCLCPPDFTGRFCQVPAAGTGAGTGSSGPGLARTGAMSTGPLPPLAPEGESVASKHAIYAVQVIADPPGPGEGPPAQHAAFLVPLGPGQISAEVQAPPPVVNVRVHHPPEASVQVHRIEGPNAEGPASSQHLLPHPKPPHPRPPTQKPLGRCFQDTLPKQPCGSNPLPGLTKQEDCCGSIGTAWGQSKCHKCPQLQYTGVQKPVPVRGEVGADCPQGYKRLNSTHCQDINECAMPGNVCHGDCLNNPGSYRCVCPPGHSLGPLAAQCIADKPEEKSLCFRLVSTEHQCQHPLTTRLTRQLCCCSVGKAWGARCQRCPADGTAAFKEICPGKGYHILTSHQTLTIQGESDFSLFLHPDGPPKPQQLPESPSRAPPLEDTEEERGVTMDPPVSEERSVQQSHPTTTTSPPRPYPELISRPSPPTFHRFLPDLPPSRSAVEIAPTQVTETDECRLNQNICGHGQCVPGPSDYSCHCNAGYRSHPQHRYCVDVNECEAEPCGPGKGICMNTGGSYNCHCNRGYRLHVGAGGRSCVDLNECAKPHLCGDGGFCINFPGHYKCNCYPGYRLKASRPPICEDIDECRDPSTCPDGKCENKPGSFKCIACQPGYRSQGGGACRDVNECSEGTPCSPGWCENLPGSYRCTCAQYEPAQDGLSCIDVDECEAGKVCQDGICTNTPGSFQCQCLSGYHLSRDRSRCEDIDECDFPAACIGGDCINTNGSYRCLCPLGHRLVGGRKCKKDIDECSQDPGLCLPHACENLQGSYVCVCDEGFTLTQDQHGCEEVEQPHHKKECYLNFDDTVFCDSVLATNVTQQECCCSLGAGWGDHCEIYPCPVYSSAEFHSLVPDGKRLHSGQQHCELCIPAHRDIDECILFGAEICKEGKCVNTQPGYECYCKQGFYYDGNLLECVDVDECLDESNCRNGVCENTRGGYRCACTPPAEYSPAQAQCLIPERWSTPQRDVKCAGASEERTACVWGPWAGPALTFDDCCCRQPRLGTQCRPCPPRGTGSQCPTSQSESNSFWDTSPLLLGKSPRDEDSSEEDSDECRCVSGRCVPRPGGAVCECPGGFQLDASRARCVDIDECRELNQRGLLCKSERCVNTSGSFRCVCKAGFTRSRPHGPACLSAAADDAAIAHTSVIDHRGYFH
T3 sequence (P04202 30-390 limits assumed, chain 2 of 2): as the sequence (chain, as listed by the source limits assumed, chain 2 of 2) above
Protocol: as §2, §3, §4

[5] = biological target: T4, mouse LTBP1-proTGFβ1 complex (mouse, UniProt Q8CG19 339-1712; P04202 30-390); assay: as above
T4 construct: Exemplary entries; In the cell assays expressed from mouse LTBP1S and mouse proTGFb1 plasmids in LN229 cells; also called Mo LTBP1-proTGFβ1; MuLTBP1-ProTGFb1
Protocol: as §2, §3, §4

[6] = biological target: T5, human GARP-proTGFβ1 complex (human, UniProt Q14392 18-627; P01137 30-390, limits assumed); assay: as above
T5 construct: Exemplary entries; also called Hu GARP-proTGFβ1; huGARP proTGFb1
T5 sequence (Q14392 18-627 limits assumed, chain 1 of 2): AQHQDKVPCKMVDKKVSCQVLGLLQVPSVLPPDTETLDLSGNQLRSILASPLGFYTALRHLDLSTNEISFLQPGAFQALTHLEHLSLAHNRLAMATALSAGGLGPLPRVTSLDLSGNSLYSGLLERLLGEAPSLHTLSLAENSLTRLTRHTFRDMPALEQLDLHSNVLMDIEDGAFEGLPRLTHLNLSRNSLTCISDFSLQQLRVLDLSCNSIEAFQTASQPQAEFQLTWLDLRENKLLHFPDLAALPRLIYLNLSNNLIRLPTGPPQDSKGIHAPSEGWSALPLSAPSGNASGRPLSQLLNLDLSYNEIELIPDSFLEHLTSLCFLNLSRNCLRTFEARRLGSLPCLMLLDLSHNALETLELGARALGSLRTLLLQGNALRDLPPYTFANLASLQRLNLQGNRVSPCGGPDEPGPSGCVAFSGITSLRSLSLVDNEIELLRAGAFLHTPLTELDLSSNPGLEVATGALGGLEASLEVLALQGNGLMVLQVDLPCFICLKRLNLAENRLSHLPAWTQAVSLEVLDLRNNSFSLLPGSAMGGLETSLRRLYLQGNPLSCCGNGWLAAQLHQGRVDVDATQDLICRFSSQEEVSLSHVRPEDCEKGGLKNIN
T5 sequence (P01137 30-390 limits assumed, chain 2 of 2): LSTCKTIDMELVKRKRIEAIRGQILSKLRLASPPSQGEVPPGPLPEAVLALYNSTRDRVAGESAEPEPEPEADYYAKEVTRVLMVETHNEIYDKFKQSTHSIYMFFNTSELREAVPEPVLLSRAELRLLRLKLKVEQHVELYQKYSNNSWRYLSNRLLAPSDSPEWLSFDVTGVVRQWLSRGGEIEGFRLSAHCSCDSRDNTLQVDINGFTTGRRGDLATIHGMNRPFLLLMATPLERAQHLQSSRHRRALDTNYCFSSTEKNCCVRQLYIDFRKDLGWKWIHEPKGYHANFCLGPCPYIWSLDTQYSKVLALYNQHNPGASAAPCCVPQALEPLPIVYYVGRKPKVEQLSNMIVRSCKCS
Protocol: as §2, §3, §4

[7] = biological target: T6, human LRRC33-proTGFβ1 complex (human, UniProt Q86YC3 19-650; P01137 30-390, limits assumed); assay: as above
T6 construct: Exemplary entries; also called huLRRC33 proTGFb1; HuLRRC33-ProTGFb1
Protocol: as §2, §3, §4

[8] = biological target: T7, human LTBP3-proTGFβ1 complex (human, UniProt Q9NS15 44-1303; P01137 30-390, limits assumed); assay: as above
T7 construct: Exemplary entries; also called Hu LTBP3-proTGFβ1; huLTBP3 proTGFb1
Protocol: as §2, §3, §4

[9] = biological target: T8, mouse GARP-proTGFβ1 complex (mouse, UniProt G3XA59 18-628; P04202 30-390, limits assumed); assay: as above
T8 construct: Exemplary entries; also called MuGARP-ProTGFb1; Mu GARP-ProTGFβ1
Protocol: as §2, §3, §4

[10] = biological target: T1, human LTBP1-proTGFβ1 complex; assay: SPR Biacore 8K, monovalent Fab
Protocol: as §3, §4
(§5) The monovalent half-binding-time (T^{1/2}) value was at least 45 minutes for each of hLTBP1-proTGFβ1 and hLTBP3-proTGFβ1 complexes. The monovalent T^{1/2} value was less than 5 minutes for each of hGARP-proTGFβ1 and hLRRC33-proTGFβ1 complexes, as measured by SPR.

[11] = biological target: T2, mouse LRRC33-proTGFβ1 complex; assay: SPR Biacore 8K, monovalent Fab
Protocol: as §3, §4, §5

[12] = biological target: T3, mouse LTBP3-proTGFβ1 complex; assay: SPR Biacore 8K, monovalent Fab
Protocol: as §3, §4, §5

[13] = biological target: T4, mouse LTBP1-proTGFβ1 complex; assay: SPR Biacore 8K, monovalent Fab
Protocol: as §3, §4, §5

[14] = biological target: T5, human GARP-proTGFβ1 complex; assay: SPR Biacore 8K, monovalent Fab
Protocol: as §3, §4, §5

[15] = biological target: T6, human LRRC33-proTGFβ1 complex; assay: SPR Biacore 8K, monovalent Fab
Protocol: as §3, §4, §5

[16] = biological target: T7, human LTBP3-proTGFβ1 complex; assay: SPR Biacore 8K, monovalent Fab
Protocol: as §3, §4, §5

[17] = biological target: T8, mouse GARP-proTGFβ1 complex; assay: SPR Biacore 8K, monovalent Fab
Protocol: as §3, §4, §5

[18] = biological target: T5, human GARP-proTGFβ1 complex; assay: SPR Biacore 8K, Fab up to 100 nM over captured antigen
Protocol: as §1

[19] = biological target: T6, human LRRC33-proTGFβ1 complex; assay: as above
Protocol: as §1

[20] = biological target: T7, human LTBP3-proTGFβ1 complex; assay: SPR Biacore 8K, Fab over captured antigen
In short: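 Biotinylated antigen complexes captured on a Biotin CAPture chip (10 nM, ~200 RU), with Fab fragments injected as analyte by multi-cycle kinetics and regeneration between cycles. Runs in HBS-EP+ pH 7.4, 0 nM analyte as reference; ka, kd and KD from a global 1:1 binding fit.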

[21] = biological target: T3, mouse LTBP3-proTGFβ1 complex; assay: SPR Biacore 8K, Fab over captured antigen; mean of 2
Protocol: as §1

[22] = biological target: T4, mouse LTBP1-proTGFβ1 complex; assay: cell-based or functional assay
[23] = biological target: LTBP-proTGFβ1: transfected human proTGFβ1 presented by endogenous LTBP1/3 of LN229 cells (human); assay: cell-based or functional assay
Sequence of LTBP-proTGFβ1: transfected human proTGFβ1 presented by endogenous LTBP1/3 of LN229 cells (human) (P01137 30-390): as the sequence (P01137 30-390 limits assumed, chain 2 of 2) above

[24] = biological target: T5, human GARP-proTGFβ1 complex; assay: Octet BLI (N.B. = non-binder under conditions of this assay)
Protocol: (§6) Binding affinities of the optimized antibodies were measured by Octet against human LTBP1-proTGFβ1, human LTBP3-proTGFβ1, mouse LTBP1-proTGFβ1, mouse LTBP3-proTGFβ1, and GARP-proTGFβ1 complexes, essentially as described in Example 6. […] The antigens were allowed to associate for 3 minutes followed by a 5-minute dissociation. Kinetics buffer (ForteBio®) was used throughout the experiment, and KD was determined using a 1:1 fitting model for each antibody antigen pair.
Table 9 presents the binding profile and affinity data for the indicated LTBP complex-specific antibodies (IgG1-agly) identified from the light chain optimization cycle 3, determined by Octet.

[25] = biological target: T1, human LTBP1-proTGFβ1 complex; assay: Octet BLI, IgG captured
Protocol: as §6

[26] = biological target: T3, mouse LTBP3-proTGFβ1 complex; assay: Octet BLI, IgG captured
Protocol: as §6

[27] = biological target: T4, mouse LTBP1-proTGFβ1 complex; assay: Octet BLI, IgG captured
Protocol: as §6

[28] = biological target: T7, human LTBP3-proTGFβ1 complex; assay: Octet BLI, IgG captured
Protocol: as §6

T1 sequence (Q14766 347-1721 limits assumed, chain 1 of 2): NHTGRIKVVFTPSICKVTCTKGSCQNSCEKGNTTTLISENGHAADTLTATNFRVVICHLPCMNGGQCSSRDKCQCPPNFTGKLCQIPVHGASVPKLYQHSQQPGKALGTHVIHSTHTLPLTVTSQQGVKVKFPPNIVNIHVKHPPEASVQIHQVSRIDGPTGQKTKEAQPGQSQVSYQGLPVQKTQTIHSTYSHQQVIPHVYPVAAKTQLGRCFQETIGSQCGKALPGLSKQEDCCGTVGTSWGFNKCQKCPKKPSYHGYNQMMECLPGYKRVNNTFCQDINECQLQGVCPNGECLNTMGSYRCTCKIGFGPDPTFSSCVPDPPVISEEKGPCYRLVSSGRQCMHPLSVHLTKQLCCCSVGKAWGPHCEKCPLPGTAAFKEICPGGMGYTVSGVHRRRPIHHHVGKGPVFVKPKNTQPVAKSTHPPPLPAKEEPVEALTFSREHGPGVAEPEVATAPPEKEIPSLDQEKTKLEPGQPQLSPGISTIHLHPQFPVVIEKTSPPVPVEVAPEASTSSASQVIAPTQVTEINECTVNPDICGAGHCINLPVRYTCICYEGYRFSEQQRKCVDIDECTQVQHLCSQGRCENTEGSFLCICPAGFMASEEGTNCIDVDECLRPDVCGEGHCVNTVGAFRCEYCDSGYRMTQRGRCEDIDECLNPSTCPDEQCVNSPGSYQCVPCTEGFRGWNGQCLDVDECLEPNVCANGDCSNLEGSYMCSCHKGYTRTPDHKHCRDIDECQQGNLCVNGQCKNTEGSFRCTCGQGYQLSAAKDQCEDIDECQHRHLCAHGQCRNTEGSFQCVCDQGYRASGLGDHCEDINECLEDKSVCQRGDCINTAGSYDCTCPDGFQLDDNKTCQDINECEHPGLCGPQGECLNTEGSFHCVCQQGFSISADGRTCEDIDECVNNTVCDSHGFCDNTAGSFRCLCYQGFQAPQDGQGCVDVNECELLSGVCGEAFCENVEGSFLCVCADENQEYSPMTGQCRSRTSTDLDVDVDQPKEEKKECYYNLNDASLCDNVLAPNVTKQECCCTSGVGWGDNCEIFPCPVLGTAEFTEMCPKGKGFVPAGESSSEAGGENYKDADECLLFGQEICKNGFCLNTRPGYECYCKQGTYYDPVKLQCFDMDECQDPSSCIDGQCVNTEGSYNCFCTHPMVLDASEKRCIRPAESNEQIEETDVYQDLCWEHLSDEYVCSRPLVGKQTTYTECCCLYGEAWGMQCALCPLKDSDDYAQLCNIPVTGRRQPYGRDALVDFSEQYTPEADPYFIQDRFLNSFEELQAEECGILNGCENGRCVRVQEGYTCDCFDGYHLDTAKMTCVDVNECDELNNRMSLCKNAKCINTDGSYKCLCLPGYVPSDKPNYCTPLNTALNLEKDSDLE
T1 sequence (P01137 30-390 limits assumed, chain 2 of 2): as the sequence (P01137 30-390 limits assumed, chain 2 of 2) above

B1: SR-AB42-HuFab (Fab, V domains shown)
VH: QVQLVESGGGVVQPGRSLRLSCAASGFTFRSYVMHWVRQAPGKGLEWVAVISHEGSLKYYADSVKGRFTISRDNSKNTLYLQMNSLRAEDTAVYYCARPRIAARRGGFGYWGQGTLVTVSS
VL: NFMLTQPHSVSESPGKTVTISCTRSSGNIDNNYVQWYQQRPGSSPTTVIYEDNQRPSGVPDRFSGSIDSSSNSASLTISGLKTEDEADYYCQSYDYDTQGVVFGGGTKLTVL
notes: Human Fab; also called SR-AB42 Fab; LTBP-SR-AB42 HuFab
Q: How did the Kd [1] turn out when B1 was run?
A: 0.194 nM

Q: And the koff [1]?
A: 0.000105 s⁻¹

Q: And the kon [1]?
A: 543000 M⁻¹ s⁻¹

Q: And the Kd [2]?
A: 0.381 nM

Q: And the Kd [3]?
A: 110 nM

Q: What about the Kd [4] of the same binder?
A: 0.68 nM

Q: And the Kd [5]?
A: 0.611 nM

Q: And the Kd [6]?
A: 145 nM

Q: What about the Kd [7] of the same binder?
A: 134 nM

Q: What about the Kd [8] of the same binder?
A: 0.57 nM

Q: And the Kd [9]?
A: 29.1 nM

Q: And the “T1/2 Binding” value [10]?
A: 102 min

Q: What about the Kd [11] of the same binder?
A: 110 nM

Q: What about the “T1/2 Binding” value [11] of the same binder?
A: 7.4 min

Q: And the Kd [12]?
A: 0.68 nM

Q: What about the “T1/2 Binding” value [12] of the same binder?
A: 72 min

Q: What about the Kd [13] of the same binder?
A: 0.6 nM

Q: What about the “T1/2 Binding” value [13] of the same binder?
A: 66 min

Q: And the Kd [14]?
A: 144 nM

Q: And the “T1/2 Binding” value [14]?
A: 1.9 min

Q: And the Kd [15]?
A: 134 nM

Q: And the “T1/2 Binding” value [15]?
A: 4.3 min

Q: And the Kd [16]?
A: 0.57 nM

Q: What about the “T1/2 Binding” value [16] of the same binder?
A: 102 min

Q: What about the Kd [17] of the same binder?
A: 29 nM

Q: What about the “T1/2 Binding” value [17] of the same binder?
A: 5.1 min

Q: What about the Kd [18] of the same binder?
A: 38.9 nM

Q: What about the koff [18] of the same binder?
A: 0.00604 s⁻¹

Q: What about the kon [18] of the same binder?
A: 155000 M⁻¹ s⁻¹

Q: And the Kd [19]?
A: 43.6 nM

Q: What about the koff [19] of the same binder?
A: 0.00353 s⁻¹

Q: What about the kon [19] of the same binder?
A: 80900 M⁻¹ s⁻¹

Q: What about the Kd [20] of the same binder?
A: 0.35 nM

Q: What about the koff [20] of the same binder?
A: 0.000142 s⁻¹

Q: What about the kon [20] of the same binder?
A: 405000 M⁻¹ s⁻¹

Q: What about the Kd [21] of the same binder?
A: 2.66 nM

B2: SR-AB43 (antibody, IgG1, V domains shown)
VH: B1 VH
VL: B1 VL with N31Y, Q54V, Y96S, T98N, G100R
notes: Cycle 3, lineage SR-AB23
Q: Which results are given for B2?
A: IC50, mLTBP1 assay (CAGA12 luciferase) [22]: 0.319 nM; IC50, endogenous hLTBP assay (CAGA12 luciferase) [23]: 1.76 nM; binding result [24]: no binding (tested: antigen 100 nM); Kd [25]: 0.649 nM; koff [25]: 0.000159 s⁻¹; kon [25]: 244000 M⁻¹ s⁻¹; Kd [26]: 0.891 nM; Kd [27]: 0.731 nM; Kd [28]: 0.178 nM; koff [28]: 6e-05 s⁻¹; kon [28]: 337000 M⁻¹ s⁻¹
